# Test results from paper PMC4414485.
# Legend:
# [1] = biological target: hERG1a(R56Q).Citrine (human) (UniProt Q12809)
# [2] = biological target: hERG1a(R56Q).Citrine (human) (UniProt Q12809); remark: listed apart in the source
substance,measurement,setting,value
isolated eag domain of hERG fused to CFP (i-eag.CFP) (domain or fragment),"fast deactivation time constant (tau fast) of hERG1a(R56Q) tail currents with co-expressed i-eag in HEK293 cells, whole-cell patch clamp, -120 to -20 mV (slower than hERG1a(R56Q) alone)",[1],307 ms
same,"fast deactivation time constant (tau fast) of hERG1a(R56Q) tail currents with co-expressed i-eag in hiPSC-CMs, whole-cell patch clamp, -120 to -20 mV (slower than hERG1a(R56Q) alone)",[1],326 ms
same,"slow deactivation time constant (tau slow) of hERG1a(R56Q) tail currents with co-expressed i-eag in HEK293 cells, whole-cell patch clamp, -120 to -20 mV (slower than hERG1a(R56Q) alone)",[1],1780 ms
same,"slow deactivation time constant (tau slow) of hERG1a(R56Q) tail currents with co-expressed i-eag in hiPSC-CMs, whole-cell patch clamp, -120 to -20 mV (slower than hERG1a(R56Q) alone)",[1],2340 ms
same,"V1/2 of steady-state inactivation of hERG R56Q channels with co-expressed i-eag in HEK293 cells (hERG R56Q alone -13.6 mV, WT hERG -32.2 mV)",[2],-24.7 mV
